Test system: MS2 coat protein
Assay: apparent KD of MS2 coat protein; designed switch direction (-1 OFF switch, 1 ON switch): -1; higher = weaker reporter binding
How it was run: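 Designed RNA switches with common flanks were made on Illumina chips by stalled E. coli RNA polymerase. Titration with SNAP-549-labelled MS2 coat protein doubled from 0.7 or 1.5 nM up to 3 µM. Apparent KD is each design's median over clusters after curve-fitting normalised fluorescence.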

[1] = input ligand: microRNA oligo, concentration not stated
[2] = Eterna round: R95, input ligand: microRNA oligo, concentration not stated
[3] = Eterna round: R95, input ligand: FMN 200 uM
[4] = Eterna round: R95, input ligand: none

| Sequence | apparent KD of MS2 coat protein (input ligand: FMN 200 uM) [nM] | apparent KD of MS2 coat protein (input ligand: none) [nM] | apparent KD of MS2 coat protein [2] [nM] | also measured |
| --- | --- | --- | --- | --- |
| AGUACUGACACGUCGGUGUUAGUACAAUAAGCUUGUGAAACAUGAGGAUCACCCAUGUCCUCAUAAGCUCGUCUUAU [salish99_TOv2_r3_081] (Eterna round: R96, puzzle: Sensor v3, turn-off variant 2) | 15.1 | 17.2 |  | apparent KD of MS2 coat protein [1]: 481 nM |
| AAGAAGUCAGGAUAUACAUGAGGAUCACCCAUGUAAAAGAAAGAAAAGGGAAAGAAAAGUAGAAGGGACAAGAA [Menkheperre Thutmose III] (Eterna round: R96, puzzle: Exclusion 3) | 22.9 | 27.2 |  | apparent KD of MS2 coat protein [1]: 21.8 nM |
| GUAGAGUCAGGAUAUACGAGAUCGAAAGAUCAGUGGUCCUUACAUGAGGAUCACCCAUGUAGAAGGGACUCUAC [Omei mod 12 to Eli's favorate candidate (ch.parushev)] (Eterna round: R97, puzzle: Exclusion 2) | 39.6 | 790 |  |  |
| CGACGUAAAGGAUAUACAUGAGGAUCACCCAUGUCCCUACAAUGAGUAGGUACACGCAGUAGAAGGUUACUUCG [Eternabot (Original) Solution 15] (Eterna round: R97, puzzle: Exclusion 3) | 107 | 37 |  |  |
| UCGGCGCGAGGAUAUGCGGCUUGUGCUUCGGGCCCUCGCGUACAUGAGGAUCACCCAUGUAGAAGGCGCGCCGC [Apr-15 SS2-44] (puzzle: Exclusion 2) |  |  | 53.8 |  |
| CCGGAAAUGAAGGAUAUAGGAGUCGAUAGACACCUAGAAGGUCAUACAUGAGGAUCACCCAUGUGUCCUACCGG [Fiskers Ex 6 - 78] (puzzle: Exclusion 6) |  |  | 14.9 |  |
| AUAUAUAGUGUGAGGAUAUGCUGGUCCUUGGAUCAGCAGAAGGCACAUGAGGAUCACCCAUGUAGUUAAAUAUA [Mat - Exclusion 4 - JL Mod - D19] (puzzle: Brourd's mod of Exclusion 4) |  |  | 32.1 |  |
| AGCUGUGGCCGAGGAUAUCUAUCUUCAAUAACCGAAAUAUAAUCGGACAUGAGGAUCACCCAUGUAGAGAAGGCGGUCUCAGCA [Eli eng2 - 091] (Eterna round: R96, puzzle: Exclusion NG 2) |  |  |  | apparent KD of MS2 coat protein [1]: 27.3 nM |
| CAGAAACAUGAGGAUCACCCAUGUGAGGAUAUGAAAAAGAAAAGAAAAGAAAGAAGAAUCAGAAGGCACAAAGG [salish99-ex1_r3_081] (puzzle: Exclusion 1) |  |  | 30.8 | apparent KD of MS2 coat protein [3]: 39.9 nM; apparent KD of MS2 coat protein [4]: 38.5 nM |
| CUGAACCCGGUAGGAUAUAUUGUGGGCAAGCAUGGAACGACAUGAGGAUCACCCAUGUAAUUUAGGUAGAAGGGCCGAGAGAUU [Excl-NG2-LRO11] (Eterna round: R96, puzzle: Exclusion NG 2) | 70.7 | 67.3 |  | apparent KD of MS2 coat protein [1]: 66.3 nM |
| AGUACUAACACGAAAGUGUUAGUACAAUAAGCUUGUGCAACAUGAGGAUCACCCAUGUCCUCAUAAGCUCGUCUUAU [salish99_TOv2_r3_044] (puzzle: Sensor v3, turn-off variant 2) |  |  | 75.2 | apparent KD of MS2 coat protein [3]: 544 nM; apparent KD of MS2 coat protein [4]: 574 nM |
| CUCUUGUCAGGAUAUCUAAGCUGCCUCCCAGUAGCCGAAUUAGAGAAGGGACAUGAGGAUCACCCAUGUAAACG [Enaeren] (puzzle: Exclusion 4) |  |  | 106 |  |
| GAGGAACAUGAGGAUCACCCAUGUAAGGAUAUGCAAAGAGAGAAAGAAGAAGGAGAAAGCAGAAGGUACAAGGA [JR_Exclu1_Sub073] (puzzle: Exclusion 1) |  |  | 35.1 | apparent KD of MS2 coat protein [3]: 42.7 nM; apparent KD of MS2 coat protein [4]: 54.2 nM |
| AGAUUAAAUGAGGAUAUCGUAUUGGAUAUAGUGCGAGAAGGCAUGACAUGAGGAUCACCCAUGUAGUGUUGGGA [JR_Ex6_Sub009] (Eterna round: R97, puzzle: Exclusion 6) | 91.5 | 43.4 |  |  |
| GGGAAGUGAGGAUAUAUGAGAGAGGCUGAACCGGACGAGAAGUAGAAGGCACAUGAGGAUCACCCAUGUAGGGA [JR_Exclu4_Sub025] (puzzle: Exclusion 4) |  |  | 128 |  |
| AGCCUCUAAGGAUAUACAUGAGGAUCACCCAUGUACUUAGAAGGGAAACCUUCUAUAUGUAGAAGGUAGAAGCA [Exclusion 3 S1] (Eterna round: R97, puzzle: Exclusion 3) | 16 | 12.7 |  |  |

| Sequence | apparent KD of MS2 coat protein (input ligand: FMN 200 uM) [nM] | apparent KD of MS2 coat protein (input ligand: none) [nM] | apparent KD of MS2 coat protein [2] [nM] | also measured |
| --- | --- | --- | --- | --- |
| CUAUGAGCUGAGGAUAUCUGCAGGUUGGGCCUGGGAGAAGGCGGCACAUGAGGAUCACCCAUGUGACCGAAAUA [Mod2 Ex6 A.17 by Nando] (Eterna round: R97, puzzle: Exclusion 6) | 16.3 | 12.7 |  |  |
| UUAAUAAGUGUGAGGAUAUGCUGGUCCUUGGAUCAGCAGAAGGCACAUGAGGAUCACCCAUGUACAAUAUAUUA [Mat - Exclusion 4 - JL Mod - D31] (puzzle: Brourd's mod of Exclusion 4) |  |  | 33.9 |  |
| UUCCUACAUGAGGAUCACCCAUGUGAGGAUAUGCAUCGUAUUAUUCUCGUAUGUAGUAGCAGAAGGCGCAUUGG [Starry Exclusion 1.1] (Eterna round: R96, puzzle: Exclusion 1) | 82.5 | 29 |  | apparent KD of MS2 coat protein [1]: 15.9 nM |
| AAAUACAAGUAGAGAUUCUACAUGAGGAUCACCCAUGUGCUCGUCUUAUAAAGUACUAUCACGAAAGUGAUAGUACA [Sensor 3, v1 - 37] (puzzle: Sensor v3, turn-off variant 1) |  |  | 211 | apparent KD of MS2 coat protein [3]: 14.2 nM; apparent KD of MS2 coat protein [4]: 14.1 nM |
| ACAUGUUGCGCAGGAUAUGAGACACAUGAGGAUCACCCAUGUGGCUACAUGUCAUACCAAGCGUCUCAGAAGGGUGUGAACAUG [Ex NG2 #34] (Eterna round: R96, puzzle: Exclusion NG 2) | 18.7 | 18.1 |  | apparent KD of MS2 coat protein [1]: 11.7 nM |
| GUUUAAUUAGGAUAUGCAAGCGGUGUUAGAAAAGUAUCCAAACAUGAGGAUCACCCAUGUAGAAGGAGUUGUUG [Eternabot (L2) Solution 59] (Eterna round: R97, puzzle: Exclusion 2) | 28.5 | 30.2 |  |  |
| GGUAGAGUGGUAGGAUAUCCGACUGAAACAGACGGAGAAGGACCACAGUCACUGGGUCCACUUAUAAUUAACAAUAAAUCUACC [pwkr exNG1 F6.2] (Eterna round: R96, puzzle: Exclusion NG 1) | 326 | 263 |  | apparent KD of MS2 coat protein [1]: 120 nM |
| GUCCAGGCAGGAUAUGUACAGGAGCACUUGAGGAUCACCCAAGUCCUCGUGUUGUUGUCAGCAGAAGGGCCCAUUA [Dizaquin] (Eterna round: R97, puzzle: Exclusion 5) | 529 | 187 |  |  |
| CCUCGACAUGAGGAUCACCCAUGUCAGGAUAUUGUGUAUCGGGUUUUUUACGGAAAGGCGAGAAGGGAUGUGUG [LRO-Excl1-10] (puzzle: Exclusion 1) |  |  | 15.5 |  |
| ACAUGAGGAUCACCCAUGUUUUUCGGGUACUCUUGAUACAGCAAGGAUAUGCAUUAUUUAUGUACGCAGAAGGUGCAUUACGUC [JR_ExcNG3_Sub064] (Eterna round: R96, puzzle: Exclusion NG 3) | 104 | 71.9 |  | apparent KD of MS2 coat protein [1]: 67 nM |
| AUGUUUGUAGUGAGGAUAUCGUUGAGGAAGAGGAUCGAGAAGGCACAUGAGGAUCACCCAUGUAAGAUGUGGUA [JR_BMOE4_Sub081] (puzzle: Brourd's mod of Exclusion 4) |  |  | 61.2 | apparent KD of MS2 coat protein [3]: 69.9 nM; apparent KD of MS2 coat protein [4]: 55.5 nM |
| AGUAACAGAGGAUAUACUAUUUUAUGUGUUUGUUAUUUUAAACAUGAGGAUCACCCAUGUAGAAGGCUGAAUAA [JMF 84] (puzzle: Exclusion 2) |  |  | 21 |  |
| GAUUAACAUGAGGAUCACCCAUGUGAGGAUAUGGACUUGCCCACUUUCCCAUUAGAGUCUAGAAGGCGCAUCUG [1986#24] (Eterna round: R97, puzzle: Exclusion 1) | 37.2 | 37.9 |  |  |
| CCGGAAAUAGAGGAUAUCGUACUGGAUACAGUACGAGAAGGCUAUACAUGAGGAUCACCCAUGUGUCCUACCGG [Fiskers Ex 6 - 61] (puzzle: Exclusion 6) |  |  | 16.1 |  |
| AGUGGCCGAGGAUAUACAUGAGGAUCACCCAUGUUUUAUGUUGAAACGUUAGCGGCCUGUAGAAGGCGGACCUU [Eternabot (L2) Solution 76] (Eterna round: R97, puzzle: Exclusion 3) | 17.5 | 19.3 |  |  |
| UCAGUUAUGCGAGGAUAUCGACCUUUCCUCUUAACAUGAGGAUCACCCAUGUGCUAAUCCUUCAACGAGAAGGCGCUCAAACUC [JR_ExcNG2_Sub070] (Eterna round: R96, puzzle: Exclusion NG 2) | 260 | 209 |  | apparent KD of MS2 coat protein [1]: 170 nM |
